From patent US20150011462A1 (Novo Nordisk, published 2015)
Numbered stars: 1 amine (or outer) side, 2 acyl side, 3 side chain; on linkers, the order of the positions; unused ones are H or OH. Square brackets hold non-standard residues; d marks the D form. Side chains are listed from the residue outwards. Ends that are not written are not given here. * marks the point of attachment. C20 diacid = O=C(O)CCCCCCCCCCCCCCCCCCC(=O)*; γGlu = O=C(O)[C@H](CCC(=O)[*:2])N[*:1]; Trx = NC[C@H]1CC[C@H](C(=O)O)CC1; PEG4 = NCCOCCOCCOCCOCCC(=O)O; AEEA = NCCOCCOCC(=O)O; Aib = CC(C)(N)C(=O)O

B1: N{Alpha}([Aib8,Glu22,Arg26,Arg34]-GLP-1-(7-37)-peptidyl)-N{Epsilon}[2-[2-[2-[[2-[2-[2-[[(4S)-4-carboxy-4-[[4-[(19-carboxynonadecanoylamino)methyl]cyclohexanecar … (peptide)
peptide: H[Aib]EGTFTSDVSSYLEEQAAREFIAWLVRGRGK([AEEA-AEEA-γGlu-Trx-C20 diacid])GGSK([AEEA-AEEA-γGlu-Trx-C20 diacid])
notes: Double-acylated, C-terminally extended GLP-1 analogue made by SPPS
B2: N{Alpha}([Aib8,Glu22,Arg26,Arg34]-GLP-1-(7-37)-peptidyl)-N{Epsilon}[2-[2-[2-[[2-[2-[2-[[(4S)-4-carboxy-4-[[4-[(19-carboxynonadecanoylamino)methyl]cyclohexanecar … (peptide)
peptide: H[Aib]EGTFTSDVSSYLEEQAAREFIAWLVRGRGK([AEEA-AEEA-γGlu-Trx-C20 diacid])SPEK([AEEA-AEEA-γGlu-Trx-C20 diacid])
notes: Double-acylated, C-terminally extended GLP-1 analogue made by SPPS; also called 11
B3: N{Alpha}([Aib8,Glu22,Arg26,Arg34]-GLP-1-(7-37)-peptidyl)-N{Epsilon}[2-[2-[2-[[2-[2-[2-[[(4S)-4-carboxy-4-[[4-[(19-carboxynonadecanoylamino)methyl]cyclohexanecar … (peptide)
peptide: H[Aib]EGTFTSDVSSYLEEQAAREFIAWLVRGRGK([AEEA-AEEA-γGlu-Trx-C20 diacid])PEGK([AEEA-AEEA-γGlu-Trx-C20 diacid])
notes: Double-acylated, C-terminally extended GLP-1 analogue made by SPPS; also called 12
B4: N{Alpha}([Aib8,Glu22,Arg26,Arg34]-GLP-1-(7-37)-peptidyl)-N{Epsilon}[2-[2-[2-[[2-[2-[2-[[(4S)-4-carboxy-4-[[4-[(19-carboxynonadecanoylamino)methyl]cyclohexanecar … (peptide)
peptide: H[Aib]EGTFTSDVSSYLEEQAAREFIAWLVRGRGK([AEEA-AEEA-γGlu-Trx-C20 diacid])SAEK([AEEA-AEEA-γGlu-Trx-C20 diacid])
notes: Double-acylated, C-terminally extended GLP-1 analogue made by SPPS; also called 13
B5: N{Epsilon-18}-[2-[2-[2-[[2-[2-[2-[[(4S)-4-carboxy-4-[[4-[(19-carboxynonadecanoylamino)methyl]cyclohexanecarbonyl]amino]butanoyl]amino]ethoxy]ethoxy]acetyl]amino … (peptide)
peptide: H[Aib]EGTFTSDVSK([AEEA-AEEA-γGlu-Trx-C20 diacid])YLEEQAAREFIAWLVRGRGGGGSK([AEEA-AEEA-γGlu-Trx-C20 diacid])
notes: as for B1
B6: N{Epsilon-23}-[2-[2-[2-[[2-[2-[2-[[(4S)-4-carboxy-4-[[4-[(19-carboxynonadecanoylamino)methyl]cyclohexanecarbonyl]amino]butanoyl]amino]ethoxy]ethoxy]acetyl]amino … (peptide)
peptide: H[Aib]EGTFTSDVSSYLEEK([AEEA-AEEA-γGlu-Trx-C20 diacid])AAREFIAWLVRGRGGGGSK([AEEA-AEEA-γGlu-Trx-C20 diacid])
notes: as for B1
B7: N{Epsilon-27}-[2-[2-[2-[[2-[2-[2-[[(4S)-4-carboxy-4-[[4-[(19-carboxynonadecanoylamino)methyl]cyclohexanecarbonyl]amino]butanoyl]amino]ethoxy]ethoxy]acetyl]amino … (peptide)
peptide: H[Aib]EGTFTSDVSSYLEEQAARK([AEEA-AEEA-γGlu-Trx-C20 diacid])FIAWLVRGRGGGGSK([AEEA-AEEA-γGlu-Trx-C20 diacid])
notes: as for B1
B8: N{Epsilon-27}-[(2S)-2-amino-6-[[(2S)-2-amino-6-[[(4S)-4-carboxy-4-(19-carboxynonadecanoylamino)butanoyl]amino]hexanoyl]amino]hexanoyl]-[Aib8,Glu22,Arg26,Lys27,A … (peptide)
peptide: H[Aib]EGTFTSDVSSYLEEQAARKFIAWLVRGRGGGGSK
modifications: not fully specified (residues 21, 36)
notes: Double-acylated, C-terminally extended GLP-1 analogue made by SPPS; The printed name has a typographic slip ('R2S)' for '[(2S)')
B9: N{Epsilon-31}-[2-[2-[2-[[2-[2-[2-[[(4S)-4-carboxy-4-[[4-[(19-carboxynonadecanoylamino)methyl]cyclohexanecarbonyl]amino]butanoyl]amino]ethoxy]ethoxy]acetyl]amino … (peptide)
peptide: H[Aib]EGTFTSDVSSYLEEQAAREFIAK([AEEA-AEEA-γGlu-Trx-C20 diacid])LVRGRGGGGSK([AEEA-AEEA-γGlu-Trx-C20 diacid])
notes: as for B1
B10: N{Epsilon-36}-[2-[2-[2-[[2-[2-[2-[[(4S)-4-carboxy-4-[[4-[(19-carboxynonadecanoylamino)methyl]cyclohexanecarbonyl]amino]butanoyl]amino]ethoxy]ethoxy]acetyl]amino … (peptide)
peptide: H[Aib]EGTFTSDVSSYLEEQAAREFIAWLVRGK([AEEA-AEEA-γGlu-Trx-C20 diacid])GEGPAK([AEEA-AEEA-γGlu-Trx-C20 diacid])
notes: Double-acylated, C-terminally extended GLP-1 analogue made by SPPS; also called 16
B11: N{Epsilon-36}-[2-[2-[2-[[2-[2-[2-[[(4S)-4-carboxy-4-[[4-[(19-carboxynonadecanoylamino)methyl]cyclohexanecarbonyl]amino]butanoyl]amino]ethoxy]ethoxy]acetyl]amino … (peptide)
peptide: H[Aib]EGTFTSDVSSYLEEQAAREFIAWLVRGK([AEEA-AEEA-γGlu-Trx-C20 diacid])GGGGSK([AEEA-AEEA-γGlu-Trx-C20 diacid])
notes: as for B1
B12: N{Alpha}([Aib8,Glu22,Arg26,Arg34]-GLP-1-(7-37)-peptidyl)-N{Epsilon}3-[2-[2-[2-[2-[[(4S)-4-carboxy-4-[[4-[(19-carboxynonadecanoylamino)methyl]cyclohexanecarbonyl … (peptide)
peptide: H[Aib]EGTFTSDVSSYLEEQAAREFIAWLVRGRGK([PEG4-γGlu-Trx-C20 diacid])GGSK([PEG4-γGlu-Trx-C20 diacid])
notes: Double-acylated, C-terminally extended GLP-1 analogue made by SPPS; also called 10
B13: N{Epsilon-36}-[2-[2-[2-[[2-[2-[2-[[(4S)-4-carboxy-4-[[4-[(19-carboxynonadecanoylamino)methyl]cyclohexanecarbonyl]amino]butanoyl]amino]ethoxy]ethoxy]acetyl]amino … (peptide)
peptide: H[Aib]EGTFTSDVSSYLEEQAAREFIAWLVRGK([AEEA-AEEA-γGlu-Trx-C20 diacid])GAESPK([AEEA-AEEA-γGlu-Trx-C20 diacid])
notes: Double-acylated, C-terminally extended GLP-1 analogue made by SPPS; also called 14

These binders were tested against T1, human GLP-1 receptor (human, UniProt P43220 24-463) (assay: competitive binding (SPA): displacement of 125I-GLP-1(7-36)NH2 from BHK cell membranes with human GLP-1 receptor; high HSA (2.0% final)).
T1 construct: whole, on cells
Protocol: (§1) For the receptor binding assay in the presence of low HSA (0.005%) 50 μl of the assay buffer was added to each well of an assay plate. […] For the receptor binding assay in the presence of high HSA (2%) 50 μl of the 8% albumin stock was added to each well of an assay plate. […] Cell membrane aliquots were thawed and diluted to their working concentration. Fifty μl were added to each well in the assay plate. […] WGA SPA beads were suspended in assay buffer at 20 mg/ml. The suspension was diluted to 10 mg/ml in assay buffer just prior to addition to the assay plate. Fifty μl were added to each well in the assay plate. […] A 25 μl aliquot was reserved for measuring total counts/well. […] The assay plate was incubated for 2 h at 30° C. […] The assay plate was centrifuged for 10 min. […] The assay plate was read in a Packard TopCount NXT instrument.

| Binder | IC50 [nM] |
| --- | --- |
| B1 | 185 |
| B2 | 116 |
| B3 | 212 |
| B4 | 160 |
| B5 | ≥ 1000 |
| B6 | 113 |
| B7 | 275 |
| B8 | 383 |
| B9 | ≥ 1000 |
| B10 | 602 |
| B11 | 101 |
| B12 | 123 |
| B13 | 530 |

The binders below were run against T1, human GLP-1 receptor (assay: cell-based or functional assay).

| Binder | EC50 (pM), in vitro potency, CRE luciferase reporter gene assay in BHK cells expressing the human GLP-1 receptor [pM] |
| --- | --- |
| B1 | 43 |
| B2 | 27 |
| B3 | 24 |
| B4 | 24 |
| B5 | 93 |
| B6 | 74 |
| B7 | 55 |
| B8 | 260 |
| B9 | 36 |
| B10 | 25 |
| B11 | 61 |
| B12 | 27 |
| B13 | 22 |

Each binder was assayed against T1, human GLP-1 receptor (assay: competitive binding (SPA): displacement of 125I-GLP-1(7-36)NH2 from BHK cell membranes with human GLP-1 receptor; low HSA (max. 0.001% final)).
Protocol: as §1

| Binder | IC50 [nM] |
| --- | --- |
| B1 | 1.2 |
| B2 | 1.5 |
| B3 | 1.4 |
| B4 | 1.4 |
| B5 | 1 |
| B6 | 0.85 |
| B7 | 0.75 |
| B8 | 0.43 |
| B9 | 1.4 |
| B10 | 1.4 |
| B11 | 1.1 |
| B12 | 1.3 |
| B13 | 1.5 |
